Laboratory results from IntAct's records for PubMed 18796637.

B1: B-box zinc finger protein 22 (Arabidopsis thaliana (Mouse-ear cress)), Q9SYM2 (parent)
chain: MKIQCNVCEAAEATVLCCADEAALCWACDEKIHAANKLAGKHQRVPLSASASSIPKCDICQEASGFFFCLQDRALLCRKCDVAIHTVNPHVSAHQRFLLTGIKVGLESIDTGPSTKSSPTNDDKTMETKPFVQSIPEPQKMAFDHHHHQQQQEQQEGVIPGTKVNDQTSTKLPLVSSGSTTGSIPQWQIEEIFGLTDFDQSYEYMENNGSSKADTSRRGDSDSSSMMRSAEEDGEDNNNCLGGETSWAVPQIQSPPTASGLNWPKHFHHHSVFVPDITSSTPYTGSSPNQRVGKRRRRF
partner: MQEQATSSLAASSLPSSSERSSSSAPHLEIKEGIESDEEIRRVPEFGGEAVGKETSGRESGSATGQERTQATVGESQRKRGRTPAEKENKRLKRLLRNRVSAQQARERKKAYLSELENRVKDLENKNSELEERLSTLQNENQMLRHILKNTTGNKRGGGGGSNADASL

Variants of: B1
Settings: with hy5_arath HY5, O24646

Row | Variant | effect of a mutation on the interaction
1 | D72A | disrupting interaction
2 | D81A | disrupting interaction
